Ends that are not written are not given here. Some results are limits rather than exact numbers.

Test [1] deals with 361. The experiment in a line: ITC; 10 °C.
In test [2] the target is T1, Mcl-1 (UniProt Q07820 1-350).
T1 chain: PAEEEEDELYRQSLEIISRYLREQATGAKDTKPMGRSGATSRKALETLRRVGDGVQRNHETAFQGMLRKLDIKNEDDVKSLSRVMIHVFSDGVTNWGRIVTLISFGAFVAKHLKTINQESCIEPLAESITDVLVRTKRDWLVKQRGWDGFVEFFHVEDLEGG
The experiment in a line: FP.

Test [3] addresses 29. The experiment in a line: FP.
The target of test [4] is 361. The experiment in a line: FP.
Test [5] addresses 411. The experiment in a line: FP.
Test [6] concerns the target T1, Mcl-1. The experiment in a line: ITC.
Test [7] deals with 29. The experiment in a line: ITC.
The target of test [8] is 411. Briefly: ITC.
Test [9] deals with Hallucinated Bid binder (7 nM). The experiment in a line: ITC.
Test [10] deals with best parametrically designed PTH binder. The experiment in a line: split NanoBiT.

With SESQEDIIRNIARHLAQVGDSMDRSIPPGLVNGL (also: fluorescently labelled (label and position not shown)) [Bid BH3 peptide], the equilibrium dissociation constant (Kd) amounted to 1200 nM in test [1]; 106 nM in test [2]; 40 nM in [3]; 490 nM in test [4]; 23 nM in test [5]; 770 nM in [6]. Further, the Kd in [7] amounted to 180 nM; in test [8], 410 nM; in [9] it was 25 nM.

As for SVSEIQLMHNLGKHLNSMERVEWLRKKLQDVHNF (also: fluorescently labelled (label and position not shown)) [parathyroid hormone (PTH)], the dissociation constant Kd in test [10] is over 1000 nM.

The values above are taken from paper PMC10849960 (2023).
